The record followed here is article PMC3842668, “Dual-acting stapled peptides target both HIV-1 entry and assembly” (Retrovirology, 2013).

One test concerns the target NYAD-36. The test is described as follows: ITC. The following applies: both partners purified.
A further test addresses NYAD-67. The test is described as follows: ITC. The following applies: both partners purified.

Where no end group is shown, it is not given here.

Turning to CTRPNYNKRKRIHIGPGRAFYTTKNIIGTIRQAHC (also: cyclic (mode not given here)) [full-length cyclic V3 loop peptide], the equilibrium dissociation constant (Kd) (usually the equilibrium constant for the complex coming apart) turned out to be 350 ± 30 nM with NYAD-36 and 990 ± 40 nM with NYAD-67.
